These results are taken from paper PMC10576128.

Where two headings read alike, the source gives them in different places.

For test [1], the target named is ProTα E56C/D110C labeled with Alexa Fluors 488 and 594 (human) (UniProt P06454). In words: FRET or BRET. A general note: In BRET a luciferase serves as donor, and the signal depends on an acceptor being close.
In test [2] the target is ProTα-H1 dimer (PH) of labeled ProTα E56C/D110C and unlabeled H1 (human) (UniProt P06454). In words: FRET or BRET.
Test [3] concerns the target ProTα E56C/D110C labeled with Alexa Fluors 488 and 594 (human) (UniProt P06454). In words: FRET or BRET. The source holds these as a separate data set.
Test [4] has as its target ProTα-H1 dimer (PH) of labeled ProTα E56C/D110C and unlabeled H1 (human) (UniProt P06454). In words: FRET or BRET. This is another data set of the same source.
In test [5] the target is prothymosin α (unlabeled) (human) (UniProt P06454). Nature of the test: ITC. On the technique in general: Isothermal titration calorimetry measures the heat released or taken up as one component is titrated into another.
Test [6] has the same target. Nature of the test: ITC. This is another data set of the same source.
Test [7] concerns the target ProTα-H1 dimer (PH) of unlabeled ProTα and unlabeled H1 (human) (UniProt P06454). Nature of the test: FRET or BRET.

As to “linker histone H1 (from UniProt P07305 1-194) (natural protein)”, the Kd in test [1] is 1.2 nM; in test [2] it was 13000 nM; in test [3], 0.92 nM; in test [4], 120 nM. Moreover, the dH in test [5] was 13.9 kcal/mol; in test [6], 8.37 kcal/mol.

B1: prothymosin α (unlabeled) (natural protein)
chain: MSDAAVDTSSEITTKDLKEKKEVVEEAENGRDAPANGNAENEENGEQEADNEVDEEEEEGGEEEEEEEEGDGEEEDGDEDEEAESATGKRAAEDDEDDDVDTKKQKTDEDD
As to B1, the Kd in test [7] came to 3000 nM.

For orientation: Kd means the concentration at which binding is half-saturated. A high value points to a looser complex.
